The values that follow come from paper PMC11283454.

The subject of the data set is hATE1 WT (human). Description: EMSA.

As usually defined, the Kd is the free concentration of one partner at which half of the binding sites on the other are occupied at equilibrium, for simple one-to-one binding. A higher Kd goes with weaker binding.

As for tRNAArg acceptor arm, the Kd amounted to 1600 nM.
